How the values were obtained:
Ang2-Tie2 binding = molecular target: T1, Ang2-Tie2 binding (Homo sapiens, UniProt O15123); experiment: Ang2-Tie2 binding competition ELISA; details: antibody 400 nM to 0.001 nM; 400 ng/ml FLAG-tagged hAng2; hTie2-Fc coated plate
T1 construct: purchased R&D Systems (hTie2-Fc)
T1 sequence (O15123 19-496): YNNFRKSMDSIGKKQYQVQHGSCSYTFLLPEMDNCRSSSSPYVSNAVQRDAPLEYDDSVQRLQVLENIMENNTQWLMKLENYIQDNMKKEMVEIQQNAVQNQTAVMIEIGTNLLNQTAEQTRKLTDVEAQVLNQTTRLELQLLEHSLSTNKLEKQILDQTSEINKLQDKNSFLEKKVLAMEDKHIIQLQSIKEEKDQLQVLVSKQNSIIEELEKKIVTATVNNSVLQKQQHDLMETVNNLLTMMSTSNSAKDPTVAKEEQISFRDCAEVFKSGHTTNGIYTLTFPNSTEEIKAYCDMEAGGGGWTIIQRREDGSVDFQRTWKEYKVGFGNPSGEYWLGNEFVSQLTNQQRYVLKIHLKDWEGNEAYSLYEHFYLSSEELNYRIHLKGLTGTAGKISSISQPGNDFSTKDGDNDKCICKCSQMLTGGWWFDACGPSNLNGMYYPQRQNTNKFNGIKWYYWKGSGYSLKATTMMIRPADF
Method: Ang2-Tie2 binding competition ELISA was conducted using the antibody binding to Ang2 prepared in Example 2-1 above.
More specifically, MaxiSorp™ flat-bottom plate (Nunc) of 96-well was coated with hTie2-Fc (R&D Systems) which is a protein bound with 4 ug (microgram)/ml of Fc of human IgG1. After that, the plate was washed five times with 0.05% (v/v) Tween-20-containing PBS (phosphate buffer saline) and then blocked with 1% (v/v) BSA (bovine serum albumin; Sigma)-containing PBS at a room temperature for 2 hour.
For Ang2:Tie2 competition ELISA, each anti-Ang2 antibody obtained in Example 2 was placed at various concentrations of 400 nM to 0.001 nM into each well coated with the hTie-2/Fc fusion protein along with 1% (v/v) BSA and 400 ng/ml of a FLAG-tagged hAng2 and then, the plate was allowed to react at a room temperature for 2 hours and washed five times with PBST. […] Lastly, 100 ul (microliter) of TMB substrate (Cell Signaling) was added to each well of the plate to induce color development for 3 min. and then, the reaction was ceased by the addition of 100 ul of Stop solution (Cell Signaling) and OD450 values were measured on a plate reader (Molecular Devices). […]

HUVEC monolayer = experiment: In vitro vascular permeability assay (FITC-dextran); type: cell-based, human; details: 200 ng/ml Ang1 alone or 200 ng/ml Ang2 + 1 ug/ml 10D6
Method: To see the cell permeability suppression effects of antibody 10D6, in vitro vascular permeability assay kit (Millipore) was employed. HUVEC (ATCC) cells (5×10^4) were added to a collagen-coated transwell and cultured for 2 days to prepare a confluent monolayer. It was treated with 200 ng/ml of Ang2 or 200 ng/ml of Ang1 (R&D systems) alone, or 200 ng/ml of Ang2 and 1 ug/ml of antibody 10D6, pre-incubated for 30 min. and then, treated with 100 ng/ml of LPS (Lipopolysaccharide; Sigma) or 100 ng/ml TNF-a (R&D systems) to induce the permeability of HUVEC monolayer. LPS or TNF-a weakens binding between HUVEC cells to form a gap therebetween, thereby increasing the migration of materials in the HUVEC monolayer. After 6-hour incubation for the LPS treatment group and 22-hour incubation for the TNF-a group, the upper chamber was treated with FITC-dextran (Millipore) and incubated for 18 min. The fluorescence of FITC-dextran migrated to the lower chamber was measured at 485/535 nm (Ex/Em) setting using an Envision 2104 multilabel Reader (Perkinelmer).

[1] = tested on: LLC (Lewis Lung Carcinoma); experiment: LLC tumor growth model; type: in vivo, mouse; details: LLC in C57BL/6 mice; 10 mg/kg intraperitoneal three times a week; control Fc of IgG1
Method: To see the tumor growth inhibitory effects of Ang2 antibody, a […] Xenograft model using a LLC (Lewis Lung Carcinoma) was employed.
LLC cells (ATCC) were cultured using 10% FBS (Gibco)-supplemented DMEM (Gibco) media. 1×10^6 of LLC cells were re-suspended in 100 ul of PBS (Gibco) and then subcutaneously injected into 6˜8-week-old C57BL/6 mice (Jackson Laboratory) anesthetized with 1˜2% isoflurane.
When the size of tumors reached 50˜100 mm^3, anti-Ang2 antibody (10D6) was injected at the concentration of 10 mg/kg via an intraperitoneal injection three times a week and the size of the tumors was measured.
The size of tumor (V) was calculated using the following formula: Volume (V)=(width)2×length/2
For comparison, the same experiment was performed to a control group treated with Fc of IgG1 and a comparative group treated with antibody 4H10 (refer to Example 3).

[2] = tested on: blood vessels of normal mice; experiment: Vascular toxicity in normal mice; type: in vivo, mouse; details: C57BL/6, 5 mg/kg i.p. solely or with 20 ug Ang2, every three days, 6 times
Method: The vascular toxicity of antibody 10D6 was tested.
In particular, 5 mg/kg of antibody 10D6 was administered to normal 6-week old C57BL/6 mice (Jackson Laboratory) solely or combined with 20 ug of Ang2 via an intraperitoneal injection every three days a total of 6 times, and then, the weight of the mice was measured. After 20 days, various tissues including thyroid, parathyroid, and adrenal gland were removed from the mice, and frozen sections were obtained therefrom. The frozen sections were immunostained using hamster anti-CD31 antibody (1:200, Millipore), and the changes were observed. A group administered with 20 ug of Ang2 solely was used for comparison.

B1: 10D6: mouse anti-Ang2 monoclonal antibody from hybridoma KCLRF-BP-00295; heavy chain variable region SEQ ID NO: 7, light chain variable region SEQ ID NO: 9 (antibody, V domains shown)
VH: DVQLQESGPGLVKPSQSLSLTCTVTGYSITSDYAWNWIRQFPGNKLEWMGYINYSGNTDYNPSLKSRSSITRDTSKNQFFLQLNSVTTGDTATYYCARGNFEGAMDYWGQGTSVTVSS
VL: SIVMTQTPKFLLVSAGDRVTITCKASQSVSNDVAWYQQKPGQSPKLLIYYASNRYPGVPDRFTGSGYGTDFTFTISTVQAEDLAVYFCQQDYSSPWTFGGGTKLEIK
modifications: Synthetic (Heavy chain variable region of an anti-Ang2 antibody); Synthetic (Light chain variable region of anti-Ang2 antibody)
With B1 the “inhibition of Ang2-Tie2 binding” value (Ang2-Tie2 binding) was “did not inhibit”, the “vascular permeability increased by LPS” value (HUVEC monolayer; 100 ng/ml LPS, 6 hour) was “decreased to the control level” and the “vascular permeability increased by TNF-a” value (HUVEC monolayer; 100 ng/ml TNF-a, 22 hour) was “decreased to the control level”. For the same molecule, the “inhibition of growth of the tumor compared to the control group” value [1] was “about 40%”, the “weight of normal mice” value [2] was “neither abnormal weight loss/gain” and the “vascular toxicity (morphology of blood vessels, CD31 staining)” value ([2]; after 20 days) was “no vascular toxicity”.

From patent US9505841B2, “Use of an anti-Ang2 antibody” (Samsung Electronics Co., Ltd., priority 2013, dated 2016)
